Molecular target: GFP-Hace1 (HECT domain and Ankyrin repeat Containing E3 ubiquitin-protein ligase 1) (UniProt Q8IYU2)
Chain of UniProt Q8IYU2 (Q8IYU2 whole entry, the tested form may be a part): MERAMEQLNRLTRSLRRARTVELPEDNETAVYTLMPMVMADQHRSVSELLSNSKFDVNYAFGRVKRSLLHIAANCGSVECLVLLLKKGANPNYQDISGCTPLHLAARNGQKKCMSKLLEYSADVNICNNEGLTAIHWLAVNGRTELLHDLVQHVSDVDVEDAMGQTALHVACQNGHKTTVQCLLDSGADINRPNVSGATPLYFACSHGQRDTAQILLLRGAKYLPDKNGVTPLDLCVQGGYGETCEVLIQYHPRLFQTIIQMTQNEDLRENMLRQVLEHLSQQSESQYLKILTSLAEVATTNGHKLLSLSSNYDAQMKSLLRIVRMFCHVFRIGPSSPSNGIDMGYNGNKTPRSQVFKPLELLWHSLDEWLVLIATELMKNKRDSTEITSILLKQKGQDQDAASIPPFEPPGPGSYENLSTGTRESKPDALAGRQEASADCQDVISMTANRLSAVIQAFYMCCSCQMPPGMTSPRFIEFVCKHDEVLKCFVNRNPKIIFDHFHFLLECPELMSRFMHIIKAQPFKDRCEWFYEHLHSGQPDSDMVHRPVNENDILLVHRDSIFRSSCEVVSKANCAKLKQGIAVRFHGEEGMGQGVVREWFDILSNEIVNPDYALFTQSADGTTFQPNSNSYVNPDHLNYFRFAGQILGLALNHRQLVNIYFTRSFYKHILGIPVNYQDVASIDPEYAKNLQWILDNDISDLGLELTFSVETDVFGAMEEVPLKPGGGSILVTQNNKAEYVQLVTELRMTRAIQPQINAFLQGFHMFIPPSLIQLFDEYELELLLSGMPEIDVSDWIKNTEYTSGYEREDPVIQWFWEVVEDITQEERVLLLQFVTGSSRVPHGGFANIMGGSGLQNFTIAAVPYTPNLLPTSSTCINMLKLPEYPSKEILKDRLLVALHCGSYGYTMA

fraction of the total Rac1 pool bound by Hace1: < 10%
Substance: Rac1 (from UniProt P63000 1-192) (natural protein; other documents disagree on this pair)

— article PMC3759041
